Target: T1, MBP-N-intein fusion protein (Synechocystis sp., UniProt P74750)
T1 construct: made in house; host or cells: E. coli BL21(DE3)pLysS+
Assay: in solution trans-splicing activity of photocaged C-intein polypeptides with MBP-N-intein fusion protein
Format: biochemical, Synechocystis sp. PCC6803
Conditions: for trans-splicing activity relative to the non-photocaged C-intein polypeptide: % of the trans-splicing activity of the non-photocaged C-intein polypeptide, SDS-PAGE analysis
Procedure: In-vitro protein trans-splicing was characterized as follows. Each purified C-intein polypeptide was combined with MBP-N-intein fusion protein in splicing buffer (0.5 mM EDTA, 1 mM TCEP, 50 mM sodium phosphate, 150-500 mM NaCl at pH 7). The concentration of the two proteins was typically in the range 0.1-200 μM. The mixture was allowed to react at 4° C. for 12-16 h. The reaction was then quenched by dilution into SDS-PAGE loading buffer containing 20% v/v 2-mercaptoethanol before the SDS-PAGE analysis. The spliced product was purified using HPLC and characterized by ES-MS as the trans-spliced product. The expected mass (average isotopic composition)=43988.0 Da; measured mass=43986±10 Da.
The in solution trans-splicing activity of each photocaged C-intein polypeptide was assayed using the MBP-N-intein fusion protein expressed as described above.

| Substance | trans-splicing activity relative to the non-photocaged C-intein polypeptide | ability to promote trans-splicing (in words) (with MBP-N-intein fusion protein, data not shown) |
| --- | --- | --- |
| C-intein polypeptide with caged Gly6: DnaE C-intein polypeptide SEQ ID NO:6 with PEGylated thiol linker, photocaged (nitroveratryl) at Gly6 | about 30% | – |
| C-intein polypeptide with caged Gly11: DnaE C-intein polypeptide SEQ ID NO:6 with PEGylated thiol linker, photocaged (nitroveratryl) at Gly11 | around 60% | – |
| C-intein polypeptide with caged Gly19: DnaE C-intein polypeptide SEQ ID NO:6 with PEGylated thiol linker, photocaged (nitroveratryl) at Gly19 | about 30% | – |
| C-intein polypeptide with two caged residues, Gly19 and Gly31: DnaE C-intein polypeptide SEQ ID NO:6 with PEGylated thiol linker, photocaged (nitroveratryl) at both Gly19 and Gly31 | – | completely prevent trans-splicing activity |

From patent US7972827B2, “Photoswitchable method for the ordered attachment of proteins to surfaces” (Lawrence Livermore National Security, LLC, priority 2003, dated 2011)
